According to paper PMC2955838:

Columns and labels:
[1] = biological target: vascular endothelial growth factor (VEGF) dimer (UniProt P15692); assay: split reporter
[2] = biological target: Flt-1 (Homo sapiens) (UniProt P17948); details: cited from earlier work
Sequence of Flt-1 (Homo sapiens) (P17948 27-1338): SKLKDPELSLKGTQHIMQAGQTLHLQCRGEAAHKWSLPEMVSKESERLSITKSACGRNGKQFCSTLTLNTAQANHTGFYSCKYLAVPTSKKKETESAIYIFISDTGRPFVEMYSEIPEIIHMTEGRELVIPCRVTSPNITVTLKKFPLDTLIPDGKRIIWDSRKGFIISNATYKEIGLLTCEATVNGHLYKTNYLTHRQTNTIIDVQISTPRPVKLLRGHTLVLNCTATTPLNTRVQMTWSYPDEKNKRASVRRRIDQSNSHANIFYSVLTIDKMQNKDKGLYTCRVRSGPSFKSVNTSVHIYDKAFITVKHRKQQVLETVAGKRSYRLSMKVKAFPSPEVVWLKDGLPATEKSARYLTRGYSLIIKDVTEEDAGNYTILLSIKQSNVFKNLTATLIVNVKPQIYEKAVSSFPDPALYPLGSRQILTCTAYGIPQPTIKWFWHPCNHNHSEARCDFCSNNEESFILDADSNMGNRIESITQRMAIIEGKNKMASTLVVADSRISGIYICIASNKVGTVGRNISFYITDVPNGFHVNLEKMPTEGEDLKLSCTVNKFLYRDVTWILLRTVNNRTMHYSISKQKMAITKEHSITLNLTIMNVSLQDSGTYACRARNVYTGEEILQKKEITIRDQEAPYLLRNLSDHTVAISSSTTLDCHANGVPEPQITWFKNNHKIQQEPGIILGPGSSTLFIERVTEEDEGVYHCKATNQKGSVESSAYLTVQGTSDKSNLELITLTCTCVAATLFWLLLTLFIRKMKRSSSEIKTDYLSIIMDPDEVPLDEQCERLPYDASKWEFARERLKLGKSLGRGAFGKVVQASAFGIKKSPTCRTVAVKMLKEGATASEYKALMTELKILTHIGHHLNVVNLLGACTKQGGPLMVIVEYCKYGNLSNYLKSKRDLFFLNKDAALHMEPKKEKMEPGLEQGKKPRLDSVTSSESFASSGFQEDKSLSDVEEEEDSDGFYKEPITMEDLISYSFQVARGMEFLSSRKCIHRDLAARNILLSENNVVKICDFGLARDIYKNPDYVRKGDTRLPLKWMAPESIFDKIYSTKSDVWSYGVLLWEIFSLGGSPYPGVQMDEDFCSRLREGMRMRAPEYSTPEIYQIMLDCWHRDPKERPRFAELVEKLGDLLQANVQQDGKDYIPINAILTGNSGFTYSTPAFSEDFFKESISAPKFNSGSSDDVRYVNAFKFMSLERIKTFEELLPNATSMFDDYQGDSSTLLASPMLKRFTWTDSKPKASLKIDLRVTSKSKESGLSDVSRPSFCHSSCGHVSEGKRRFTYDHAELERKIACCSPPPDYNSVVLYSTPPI

Sequence of Flt-1 domain 2 fused to the C-terminal half of firefly luciferase (domain or fragment) (P17948 27-1338): as above
Sequence of Flt-1 domain 2 fused to the N-terminal half of firefly luciferase (domain or fragment) (P17948 27-1338): as above
Sequence of VEGF (P15692 whole entry): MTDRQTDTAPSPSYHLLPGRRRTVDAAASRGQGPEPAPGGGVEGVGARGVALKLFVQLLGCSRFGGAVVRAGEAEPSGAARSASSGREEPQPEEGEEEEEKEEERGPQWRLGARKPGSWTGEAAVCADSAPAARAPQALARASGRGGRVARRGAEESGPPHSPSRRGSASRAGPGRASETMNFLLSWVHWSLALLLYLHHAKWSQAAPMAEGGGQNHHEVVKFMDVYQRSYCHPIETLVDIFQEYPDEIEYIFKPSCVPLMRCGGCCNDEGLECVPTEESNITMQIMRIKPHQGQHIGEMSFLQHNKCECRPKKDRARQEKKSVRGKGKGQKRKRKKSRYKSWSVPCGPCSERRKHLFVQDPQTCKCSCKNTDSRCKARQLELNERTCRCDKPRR

Flt-1 domain 2 fused to the N-terminal half of firefly luciferase (domain or fragment)
fold increase in luminescence [1]: > 13 fold

VEGF (from UniProt P15692)
Kd [2]: 1.4 nM

Flt-1 domain 2 fused to the C-terminal half of firefly luciferase (domain or fragment)
fold increase in luminescence [1]: > 13 fold
